The text below walks through data of US20070264253A1 (Eli Lilly, published 2007).

In experiment [1] the target is T1, EGFR-AP fusion protein (UniProt P00533 25-645).
T1 construct: Immobilised on the BIAcore sensor chip; Neither the species nor the residues of the EGFR part are stated
Put plainly: BIAcore SPR, EGFR-AP immobilised on the chip.
Description: (§1) Sensorgrams were obtained at each concentration and were analyzed with BIA Evaluation 2.0, a program to determine the rate constants, kₒₙ and koff. The affinity constant, Kd, was calculated from the ratio of rate constants, koff/kₒₙ.

In experiment [2] the target is T1, EGFR-AP fusion protein. Briefly: BIAcore SPR, EGFR-AP immobilised on the chip; koff/kon.
Description: as §1

B1: IMC-11F8 Fab (Fab, V domains shown)
VH: QVQLQESGPGLVKPSQTLSLTCTVSGGSISSGDYYWSWIRQPPGKGLEWIGYIYYSGSTDYNPSLKSRVTMSVDTSKNQFSLKVNSVTAADTAVYYCARVSIFGVGTFDYWGQGTLVTVSS
VL: EIVMTQSPATLSLSPGERATLSCRASQSVSSYLAWYQQKPGQAPRLLIYDASNRATGIPARFSGSGSGTDFTLTISSLEPEDFAVYYCHQYGSTPLTFGGGTKAEIK
As to B1, in experiment [1], the koff came out at 0.00367 s⁻¹ and the kon was found to be 2.29e+06 M⁻¹ s⁻¹. Further, the Kd in experiment [2] came out at 1.78 nM.

B2: IMC-11F8 (full human IgG1 anti-EGFR antibody) (antibody, V domains shown)
VH: B1 VH
VL: B1 VL
notes: also called IMC-C11F8; 11F8 monoclonal antibody
In the case of B2, in experiment [1], the off-rate (koff) turned out to be 0.00058 s⁻¹ and the kon came to 1.86e+06 M⁻¹ s⁻¹. Also, in experiment [2], binding was put at a Kd of 0.32 nM.
